pKd: −log10 of the molar value.
Tested on: Strep-msIHF (mycobacterial integration host factor) (Mycobacterium smegmatis mc2 155)
Experiment: BLI
Conditions: BLI: PBS with 50 mM Tris-HCl pH 7.5, 150 mM NaCl, 0.1 mg/ml BSA, 0.05% Tween-20, 30 C. EMSA: 50 mM Tris-HCl pH 8, 150 mM NaCl, 10 mM Mg acetate, 0.02% …

Substance | pKd
attB fragment | 6.60
oriC fragment | 6.57

Source: article PMC10028186
